In US20240294594A1 (CYTUNE PHARMA, published 2024):

T1: FcγRIIb (UniProt P31994 46-217, limits assumed)
T1 construct: also called FcgRIIb
T1 sequence (looked up): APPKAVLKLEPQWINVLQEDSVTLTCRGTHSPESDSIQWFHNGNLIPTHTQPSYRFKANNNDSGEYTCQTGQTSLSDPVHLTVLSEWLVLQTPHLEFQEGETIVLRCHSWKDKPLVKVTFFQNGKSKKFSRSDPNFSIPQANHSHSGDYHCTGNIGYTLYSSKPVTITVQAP


Experiments:
FcγRIIIa F158 [1] = target: T2, FcγRIIIa F158 (human, UniProt P08637 17-208, limits assumed); assay: SPR (Biacore 8K), receptor captured via anti-His antibody
T2 construct: also called hFcγRIIIaF158; CD16a F158
Description: (§1) SPR experiments were performed on a Biacore 8K (Cytiva, Chicago, IL, USA), using CM5 sensor chips (Cytiva) with an immobilization using THE His tag antibodies (Genscript). FcγRIIIa V158, FcγRIIIa F158 or FcγRIIb protein were used for capture with a contact time of 30 sec at a flow rate of […] in a 1×HBS-EP+ running buffer. Association/dissociation rates were measured for each tested immunocytokine at a flow rate of 30 μl/min with concentration serial dilution in a suitable range with an association time/dissociation time of 300 s/300 s except for constructs with DLE and DE with and without afucosylation, where association/dissociation time of 120 s/1200 s was applied.

FcγRIIIa V158 [2] = target: T3, FcγRIIIa V158 (human, UniProt P08637 17-208, limits assumed); assay: as above
T3 construct: also called hFcγRIIIaV158; CD16a V158
Description: as §1

FcγRIIb = target: T1, FcγRIIb; assay: as above
Description: as §1

FcγRIIIa F158 [3] = target: T2, FcγRIIIa F158; assay: SPR (Biacore 8K), ratio of 1/Kd values
Description: as §1

FcγRIIIa V158 [4] = target: T3, FcγRIIIa V158; assay: SPR (Biacore 8K), ratio of 1/Kd values
Description: as §1

T3 sequence (P08637 17-208 F176V limits assumed): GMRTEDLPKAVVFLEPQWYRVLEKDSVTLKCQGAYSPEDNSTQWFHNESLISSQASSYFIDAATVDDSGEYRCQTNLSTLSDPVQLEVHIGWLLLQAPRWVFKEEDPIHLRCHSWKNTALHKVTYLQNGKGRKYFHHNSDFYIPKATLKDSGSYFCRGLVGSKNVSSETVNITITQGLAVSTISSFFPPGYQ
T2 sequence (P08637 17-208 limits assumed): as the sequence (P08637 17-208 F176V limits assumed) above, with V160F counted along it

Row | Kd (FcγRIIIa F158 [1]) [nM] | Kd (FcγRIIIa V158 [2]) [nM] | Kd (FcγRIIb) [nM] | A/I (F158), affinity towards FcγRIIIa over affinity towards FcγRIIb (FcγRIIIa F158 [3]) [ratio] | A/I (V158), affinity towards FcγRIIIa over affinity towards FcγRIIb (FcγRIIIa V158 [4]) [ratio] | Binder
1 | 101 | 35.6 | 24600 | 244 | 691 | hCl1a AAA-RLI DANA (other, Immunocytokine; also called SOT202-AAA-DANA) heavy 1: QVQLVQSGAEVKKPGASVKVSCKASGYTFTDYAMHWVRQAPGQRLEWMGWINTYTGKPTYAQKFQGRVTITRDTSASTAYMELSSLRSEDTAVYYCARAVFYGYTMDAWGQGTLVTVSSASTKGPSVFPLAPSSKSTSGGTAALGCLVKDYFPEPVTVSWNSGALTSGVHTFPAVLQSSGLYSLSSVVTVPSSSLGTQTYICNVNHKPSNTKVDKKVEPKSCDKTHTCPPCPAPELLGGPSVFLFPPKPKDTLMISRTPEVTCVVVDVSHEDPEVKFNWYVDGVEVHNAKTKPREEQYNATYRVVSVLTVLHQDWLNGKEYKCKVSNKALPAPIAATISKAKGQPREPQVYTLPPSRDELTKNQVSLWCLVKGFYPSDIAVEWESNGQPENNYKTTPPVLDSDGSFFLYSKLTVDKSRWQQGNVFSCSVMHEALHNHYTQKSLSLSPGITCPPPMSVEHADIWVKSYSLYSRERYICNSGFKRKAGTSSLTECVLNKATNVAHWTTPSLKCIRDPALVHQRPAPPSGGSGGGGSGGGSGGGGSGGNWVNVISDLKKIEDLIQSMHIDATLYTESDVHPSCKVTAMKCFLLELQVISLESGDASIHATVEALIILANNSLSSNAQVTESGCKECEELEEKNIKEFLQSFVHIVQMFINTS heavy 2: QVQLVQSGAEVKKPGASVKVSCKASGYTFTDYAMHWVRQAPGQRLEWMGWINTYTGKPTYAQKFQGRVTITRDTSASTAYMELSSLRSEDTAVYYCARAVFYGYTMDAWGQGTLVTVSSASTKGPSVFPLAPSSKSTSGGTAALGCLVKDYFPEPVTVSWNSGALTSGVHTFPAVLQSSGLYSLSSVVTVPSSSLGTQTYICNVNHKPSNTKVDKKVEPKSCDKTHTCPPCPAPELLGGPSVFLFPPKPKDTLMISRTPEVTCVVVDVSHEDPEVKFNWYVDGVEVHNAKTKPREEQYNATYRVVSVLTVLHQDWLNGKEYKCKVSNKALPAPIAATISKAKGQPREPQVYTLPPSRDELTKNQVSLSCAVKGFYPSDIAVEWESNGQPENNYKTTPPVLDSDGSFFLVSKLTVDKSRWQQGNVFSCSVMHEALHNHYTQKSLSLSPG light: DIQMTQSPSSLSASVGDRVTITCRASEDIYSNLAWYQQKPGKAPKLLIFSVKRLQDGVPSRFSGSGSGTDFTLTISSLQPEDFATYYCLQGSNFPLTFGQGTKVEIKRTVAAPSVFIFPPSDEQLKSGTASVVCLLNNFYPREAKVQWKVDNALQSGNSQESVTEQDSKDSTYSLSSTLTLSKADYEKHKVYACEVTHQGLSSPVTKSFNRGEC
2 | 11.6 | 5.71 | 2650 | 228 | 464 | hCl1a DLE-RLI DANA (other, Immunocytokine; also called SOT202-DLE-DANA) heavy 1: QVQLVQSGAEVKKPGASVKVSCKASGYTFTDYAMHWVRQAPGQRLEWMGWINTYTGKPTYAQKFQGRVTITRDTSASTAYMELSSLRSEDTAVYYCARAVFYGYTMDAWGQGTLVTVSSASTKGPSVFPLAPSSKSTSGGTAALGCLVKDYFPEPVTVSWNSGALTSGVHTFPAVLQSSGLYSLSSVVTVPSSSLGTQTYICNVNHKPSNTKVDKKVEPKSCDKTHTCPPCPAPELLGGPDVFLFPPKPKDTLMISRTPEVTCVVVDVSHEDPEVKFNWYVDGVEVHNAKTKPREEQYNSTYRVVSVLTVLHQDWLNGKEYKCKVSNKALPLPEEKTISKAKGQPREPQVYTLPPSRDELTKNQVSLWCLVKGFYPSDIAVEWESNGQPENNYKTTPPVLDSDGSFFLYSKLTVDKSRWQQGNVFSCSVMHEALHNHYTQKSLSLSPGITCPPPMSVEHADIWVKSYSLYSRERYICNSGFKRKAGTSSLTECVLNKATNVAHWTTPSLKCIRDPALVHQRPAPPSGGSGGGGSGGGSGGGGSGGNWVNVISDLKKIEDLIQSMHIDATLYTESDVHPSCKVTAMKCFLLELQVISLESGDASIHATVEALIILANNSLSSNAQVTESGCKECEELEEKNIKEFLQSFVHIVQMFINTS heavy 2: QVQLVQSGAEVKKPGASVKVSCKASGYTFTDYAMHWVRQAPGQRLEWMGWINTYTGKPTYAQKFQGRVTITRDTSASTAYMELSSLRSEDTAVYYCARAVFYGYTMDAWGQGTLVTVSSASTKGPSVFPLAPSSKSTSGGTAALGCLVKDYFPEPVTVSWNSGALTSGVHTFPAVLQSSGLYSLSSVVTVPSSSLGTQTYICNVNHKPSNTKVDKKVEPKSCDKTHTCPPCPAPELLGGPDVFLFPPKPKDTLMISRTPEVTCVVVDVSHEDPEVKFNWYVDGVEVHNAKTKPREEQYNSTYRVVSVLTVLHQDWLNGKEYKCKVSNKALPLPEEKTISKAKGQPREPQVYTLPPSRDELTKNQVSLSCAVKGFYPSDIAVEWESNGQPENNYKTTPPVLDSDGSFFLVSKLTVDKSRWQQGNVFSCSVMHEALHNHYTQKSLSLSPG light: DIQMTQSPSSLSASVGDRVTITCRASEDIYSNLAWYQQKPGKAPKLLIFSVKRLQDGVPSRFSGSGSGTDFTLTISSLQPEDFATYYCLQGSNFPLTFGQGTKVEIKRTVAAPSVFIFPPSDEQLKSGTASVVCLLNNFYPREAKVQWKVDNALQSGNSQESVTEQDSKDSTYSLSSTLTLSKADYEKHKVYACEVTHQGLSSPVTKSFNRGEC
3 | 46.1 | 17.3 | 17500 | 380 | 1010 | hCl1a AAA-RLI DANA afuc (other, afucosylated Fc N-glycan) heavy 1: QVQLVQSGAEVKKPGASVKVSCKASGYTFTDYAMHWVRQAPGQRLEWMGWINTYTGKPTYAQKFQGRVTITRDTSASTAYMELSSLRSEDTAVYYCARAVFYGYTMDAWGQGTLVTVSSASTKGPSVFPLAPSSKSTSGGTAALGCLVKDYFPEPVTVSWNSGALTSGVHTFPAVLQSSGLYSLSSVVTVPSSSLGTQTYICNVNHKPSNTKVDKKVEPKSCDKTHTCPPCPAPELLGGPSVFLFPPKPKDTLMISRTPEVTCVVVDVSHEDPEVKFNWYVDGVEVHNAKTKPREEQYNATYRVVSVLTVLHQDWLNGKEYKCKVSNKALPAPIAATISKAKGQPREPQVYTLPPSRDELTKNQVSLWCLVKGFYPSDIAVEWESNGQPENNYKTTPPVLDSDGSFFLYSKLTVDKSRWQQGNVFSCSVMHEALHNHYTQKSLSLSPGITCPPPMSVEHADIWVKSYSLYSRERYICNSGFKRKAGTSSLTECVLNKATNVAHWTTPSLKCIRDPALVHQRPAPPSGGSGGGGSGGGSGGGGSGGNWVNVISDLKKIEDLIQSMHIDATLYTESDVHPSCKVTAMKCFLLELQVISLESGDASIHATVEALIILANNSLSSNAQVTESGCKECEELEEKNIKEFLQSFVHIVQMFINTS heavy 2: QVQLVQSGAEVKKPGASVKVSCKASGYTFTDYAMHWVRQAPGQRLEWMGWINTYTGKPTYAQKFQGRVTITRDTSASTAYMELSSLRSEDTAVYYCARAVFYGYTMDAWGQGTLVTVSSASTKGPSVFPLAPSSKSTSGGTAALGCLVKDYFPEPVTVSWNSGALTSGVHTFPAVLQSSGLYSLSSVVTVPSSSLGTQTYICNVNHKPSNTKVDKKVEPKSCDKTHTCPPCPAPELLGGPSVFLFPPKPKDTLMISRTPEVTCVVVDVSHEDPEVKFNWYVDGVEVHNAKTKPREEQYNATYRVVSVLTVLHQDWLNGKEYKCKVSNKALPAPIAATISKAKGQPREPQVYTLPPSRDELTKNQVSLSCAVKGFYPSDIAVEWESNGQPENNYKTTPPVLDSDGSFFLVSKLTVDKSRWQQGNVFSCSVMHEALHNHYTQKSLSLSPG light: DIQMTQSPSSLSASVGDRVTITCRASEDIYSNLAWYQQKPGKAPKLLIFSVKRLQDGVPSRFSGSGSGTDFTLTISSLQPEDFATYYCLQGSNFPLTFGQGTKVEIKRTVAAPSVFIFPPSDEQLKSGTASVVCLLNNFYPREAKVQWKVDNALQSGNSQESVTEQDSKDSTYSLSSTLTLSKADYEKHKVYACEVTHQGLSSPVTKSFNRGEC
